In a protein production outcome set (Wang et al. 2014):

Assay: label from the status in PepcDB records

## MDNVELSPATRWGMIATGLLQGLVCYLLIAWLSGKNHSWIVYGVPATVAFSSVLLFSVISFKQKRLWGWLALVFIATLGMSGWLKWQTDGMTPWRAEKALWDFGCYLLLMAMLLLPWIQQSLRIRNDSSRYRYFYQSVWHNVLILLVIFLANGLTWLVLLLWSELFKLVGITFFKTLFFATDWFIYLTLGLVTALAVILARTQSRLIDSIQKLFTLIATGLLPLVSLLTLMFIITLPFTGLSAISRHISAAGLLLTLAFLQLILMAIVRDPQKASLPWTGPLRCLIKTALLVAPLYVFIAAWALWLRVAQYGWTVDRLQGALAVLVLLVWSLGYFVSIVWRKGQNPLVLQGKVNLAVSLLVLVILVLLNSPVLDSMRISVNSHMARYQSGKNTPDQVTIYMLEHSGRYGRAALESLKSDAEYMKDPKRARDLLMALDGEQHLQQQISEKVLAENVLIAPGSGKPDATFWSALIQDRYNVMTCIEKDACVLVEQDLNSDGRAERILFAFDDERYIVYGFDPDKKEWQELTMSLLPRDITKEKLLTAAKDGKLGTKPKAWRDLVVDGERLDVNLNE
  protein production: failed

## MDPAEMRYLEEEDGPLMKTIKGSITGFGAGTIYGTILATWKDVPRVERNVALPGLIRTLKMMGTHGLTFAAIGGVYIGVEQLVQNFRSKRDFYNGAIGGFVAGASVLGYRARSIPTAIAAGATLAVTSALIDSGGQTTRVDNGREYYPYTVEKRAEADS
  protein production: not failed

## MDPESIMAADGTDSAPANGGLAMENVCVKENGAVSVETVDTTSESQNENSANSSTLDTIEHVKEAAEGTQVEHVDDSKCMKGEKAQRKPRHEKLSGGKNNSSVHIKKSKEGKSADAKVAASNGSVAPNVQTTNPLKSKSFNGREAQVTKQGKHDSAPAESADGEKVKPKSQKKQAHETSEDDTQSSNSPKADDGKPRKVGALPNYGFSFKCDQRAEKRKEFYVKLEEKTHAKEEEINSMQAKSKETQEAELRMLRKSLNFKATPMPSFYQEPQPPKTELKKIPPTRPKSPKLGRKKTASGADSEETQTPRLGRLSLDERASKDNPTAKGIMPTVDLKKQPVRKSLPRLPSQKTVLPDGKPAPAKAAIIPAKVRPEKKKLEKDAETVNQTSHPTEEEAQVTVSSNADVEDSHETVSPRMNEDRADKSIEVSEAVAVEH
  protein production: failed

## MDPFASLAEAYEAWYGTPLGAYVIAEEERALKGLLPPGESLLEVGAGTGYWLRRLPYPQKVGVEPSEAMLAVGRRRAPEATWVRAWGEALPFPGESFDVVLLFTTLEFVEDVERVLLEARRVLRPGGALVVGVLEALSPWAALYRRLGEKGVLPWAQARFLAREDLKALLGPPEAEGEAVFLAPEAHPPYEEADLAGRRAGNRPALYLGRWR
  protein production: not failed

## MDPHVSHSAHLFSLRIAHALNEACVKDRYSFKRFGQDLLAGLTVGIIAIPLAMALAIASGVPPQYGLYTAIVGGFIIAMTGGSRYSVSGPTAAFVVLLYPIAQQFGLAGLLIATVMSGMMLVAMAMLRLGRLILYIPESVTLGFTAGIGVVIATLQLKDFFGLQIEHMPEQYFAKLMALGQALPSLHLPSLFIAAATLATMLLWPRLKIPVPAHLPAIALGSILALILNAMGAEIETIGTRFHYQLTDGGIGSGIPAVLPHFEWPWLQTGPNGQAFEFNLAAFQALLPAAFAIAMLGAIESLLCAVVLDGMTGKRHSANSELLGQGIGNIIAPFFGGIPATAAIARSAANVKAGAQSPIASMIHALVVLIGLVALAGILAYLPMSAMAALLLVVAWNMSEAPKAVHLLKTAPTSDILVFLSCFSLTVIFDMVIAISVGIILAALLFMKEIAEMTKLYDISSNKRYVDQSLPADWAVLKINGPLFFAAADRIFAEIASLTQDKQVIVLYLDGVSILDAGGLAALSKLIEKCKLNQTKLLITDLQFQPIRTLAKAKIQPVEGVLKFYPTLREALTEAPSPELEATPEATD
  protein production: failed

## MDPKSCENSSDVKGQTSDSVSKKVLIEEEEDVKKPQQGKENDSRMAKDVVSCSSNISAHVVHEEVADNVTAVSCNEAESDISKAKAKEFHTIDLSGVGERICRICHFGSDQSPEASGDDKSVSPELIEIGCKCKNELGLAHFHCAEAWFKLRGNR
  protein production: failed

## MDPSQFNPTYIPGSPQMLTEENSRDDSGASQISSETLIKNLSNLTINASSESVSPLSEALLRRESVGAAVLREIEDEWLYSRRGVRTLLSVQREKMARLRYMLLGGVRTHERRPTNKEPKGVKKESRPFKCPCSFCVSNGWDPSENARIGNQDTKPLQP
  protein production: failed

## MDPTVSLQLSVDRSSPVPLYFQLSQQLEAAIEHGTLTPGSLLGNEIELAARLGLSRPTVRQAIQSLVDKGLLVRRRGVGTQVVHSQVKRPLELSSLYDDLEAAGQRPATQVLLNTLVPASAEVAAALGVAEGSDVHQVERLRLAHGEPMAYLCNYLPTGLLGLDSEQLEATGLYRLMRAAGITLHSARQSVGARAATAVEGERLGEPEGAPLLTMQRTTFDDTGRAVEFGTHTYRASRYSFEFQLLVRP
  protein production: failed

## MDQFEYIITLEFGNQNQVESAYQIFKSIPKKLKAKSIGEESIKSNNQDWQDWRVCDLEIDMITDFKNQTSKEEESDLITSQYLGHGIIRLFKLSNANNTLNEKEILTIPGDDTMICILFVPTYFTVHDLLHFYIGDDIVNKQVSNFRILRNQQKGMGFNFTVLIKFRNALDAKNFKEEFNGKSFSRMDPETCHVISVKEIVFQKKLFQRPAANEDFPYLLTDPFTVKKKKELVKVELPTCPVCLERMDSETTGLVTIPCQHTFHCQCLNKWKNSRCPVCRHSSLRLSRESLLKQAGDSAHCATCGSTDNLWICLICGNVGCGRYNSKHAIKHYEETLHCFAMDIRTQRVWDYAGDNYVHRLVQNEVDGKLVEVGGSGDDDNNDIGNSDELQNVVYGNRSKNGEKSNSNKKDGELAANFLRHREYHLEYVQVLISQLESQREYYELKLQEKDQTASDSSNVESLKKSMEDLKLQFQVTQKEWQKREMAQKSKLEEDMLVIEGLQANLDHLSKKQEQLERENKALEESKQDLEEQVKDLMFYLDSQEKFKDADESVKEGTILIQQPHGAAQASKSKKKRNKNKKAGK
  protein production: failed

## MDQKEAPSFTEASVHDPSVIKVEDTFYVFGSHLAAAKTEDLRNWTQIATHVHEGNPLIPNVFVELAEAFEWANSNTLWAADVIQLEDGRFYMYYNACQGDAPRSALGVAVADDIEGPYENLGVFLKSGMWGEESPDGTIYDANVHPNAIDPHVFFDEEGKLWMVYGSYSGGIFILEMDPDTGFPLPGQGYGTHLMGGNHSRIEAPYIHYDKETEYYYLYVTFGGLDSTGGYNMRVARSKQPDGPYVDGEGHLMSEVRGAPGTLFDDASIEPYGVKQMGNFLFKRELGERGTGYVSPGHNSVYYDDEVDKIFLFFHTRFPERGEAHEIRVHQMFMNRKGWPVIAPYRYTGESLEKVKAKEVIGDYQWINHGKEISAEIKESVTVRLEKNHKVLGDVTGKWKKVGDYHVELQIDGETYYGVFLRQWDPVAEREVMTFTALSEEGIAIWGSQLEEKTDNEIVDAVYDDLTLEGTIISDVELPTRGMRQTTIAWSSSHEEVLSSSGKVNRPEIGEDDVVVSLTATISKGSAERIKTFELVVPGQTEGGLVAHYPLNGTLENAVDDARFGSGTVTGNRIDNPGGTIAFEQGIDGEAAVFDGTTGIRLPNGLISRNTYTVSFWLNPEQLTEFTTAFFAARSEHHWLSFVPRGHSGMNHDTMLWAGSAQWYDAGTGVKLPVGEWSHVAFSVDNGEIVIYLNGEERFRGENFPNLFTTPNAYFALGVNHWDAPFQGMIDELRIYDGVALTREEIVHLAKQKLEHHHHHH
  protein production: not failed

## MDQLFRYPLHQIPLVAMAIIIALSVHEFAHAYVAYKFGDDTAKRQGRLTLSPMAHLDPIGMIAVLILGFGWARRVPVNPYNFKRPRLAGILVSIAGPISNLILSAIGLIIWYSLLTFGVLDSIPFAVADTLAQFFQIFIMLNIVLLVFNLLPIPPLDGYRVVEDLAPTNIRAKMTQYEKYGAIALLILVITPLSNYTIQPIFSVVIPYVFAFLNSIIAPIFGLL
  protein production: failed

## MDQLNKITPTGTEKVSESSCNKLEETCTKCGKNIYKKVTILGIDRIVKTMCECESKAWHEKRQHEEMLKKQNRLNELITNSLMDEKFRESNFENWDFNKGSRSMYNLGRRYADNFKECKQQGLGLLIYGSAGNGKTYLASAIANELLKQYIPVVCVSINGLLSRIQKTYNSWGKEAESDIIRSFINADLLIIDDLGTEKSSEWSRSMIYNIVDSRYRSKLPLIITSNLEINPSKRHGVLADQYHERTESRIFEMCTPVENTSKSIRIEEAKKKTELLRKILY
  protein production: failed

## MDQTAEEKMVRERIRKKVNEVSSASQSLLSPVQDHINFTLQKAYFKCAYECFDRTRTHAEISRCAESCSVPITNAQNYFDNEMSVFQERLNRSLVVCQDKFEVAKQQKTRSEAVNDLEHCVNQTVDEAVKTLPNLVSRMKKALSITD
  protein production: failed

## MDRGGMKHREGGPGPRTEMSGYSVYEEENERLTENLKMKTSALKSLSIDIGNEVKYHNKMLGEMDSDFDSTGGLLGSTMGRLKILSRGSQAKLLCYMMLFAFFVFFVIYWFIKLR
  protein production: failed

## MDRIQEMTLFAALAGQTSFTGVARHVGLSTATVTRAVASLESRLGILLVVRTTRNMRLTKAGQRFAEDCRRLLADLSEAENAAAGVHALPAGTLTVTAPQMFGALHVTPVLTRFLSEYPAVDIRAILVDRVVSMLDEGVDVAVRIGALRDSSLTAIRVGSVRRMVCASPVYLTQHGTPRHPDDLQQHATISTSAPERPPHWAFRVDDQDYSVNVASRLSLTSFQASINAALQHWGLTQVPHYQIREHLHNGRLVCVLEDFEIAPEPVHVVYSEGRRGSSRVRSFVDFCVSALREDLQFEAAG
  protein production: failed

## MDRMWSPWRSAYVSEANDREPTDDESIFTALLREERDEENLILWRGEHVFVIMNRHPYNSGHLLILPYREVTQYDALNAPEQQALTAALDRCMGWLREAVSPDGFNVGMNLGRAAGAGIPDHLHAHVVPRWDGDTNFMATTANTKVLPEDLQTTYGKLRAAMAPDARDTTKPAAQKPSE
  protein production: failed

## MDRMYEQNQMPHNNEAEQSVLGSIIIDPELINTTQEVLLPESFYRGAHQHIFRAMMHLNEDNKEIDVVTLMDQLSTEGTLNEAGGPQYLAELSTNVPTTRNVQYYTDIVSKHALKRRLIQTADSIANDGYNDELELDAILSDAERRILELSSSRESDGFKDIRDVLGQVYETAEELDQNSGQTPGIPTGYRDLDQMTAGFNRNDLIILAARPSVGKTAFALNIAQKVATHEDMYTVGIFSLEMGADQLATRMICSSGNVDSNRLRTGTMTEEDWSRFTIAVGKLSRTKIFIDDTPGIRINDLRSKCRRLKQEHGLDMIVIDYLQLIQGSGSRASDNRQQEVSEISRTLKALARELECPVIALSQLSRGVEQRQDKRPMMSDIRESGSIEQDADIVAFLYRDDYYNRGGDEDDDDDGGFEPQTNDENGEIEIIIAKQRNGPTGTVKLHFMKQYNKFTDIDYAHADMM
  protein production: failed

## MDRNLKIFITVMLILSVISQFLPFKRDAVSLINVITNLAAFMGLSYACIYSRKVYPHLYLTLLLLSAAQFFSFLGDFTWFILESILSLNPFPSVADLFYLLYYPIFAAGIFTIPIKRYSDLRSIIDLLIILVASASAAWVFLLEPTVFAGGDFTEVLVSTLYVLGDLLIVFMIMDLIINKLGHLRSRTLHVFLASIIILLAADISFTYQNLTGIYAGGTPQDLLWAFSYILLLIAVNEFFKEDWSKPLYVEKKVTAVTYTPYIFIILFYLLTAYSVIKGGAEKSTVLLVSLGFIIVLFILRQHLSMKENMALLNDVENERRRAENYLEVAGSLIMVLDEKTRVKLINRRGLEILECDAGEVAGKNWFMTFVPPEDRGWREKLYTEKISSGSKGYHLTGEILTCKGDRKTVTWHVVFLREDGEFRGSIISGDDITELQRATRALEMSEMRYREIFELAPSPIISVGDDLIIRDCNRRAESVLGYQRGELIGRNLMDLIHPEDAGEDFEGERRLLRSNGDVIYADIGVARVGDERIIIIEDQTEIRRSLQEKELLLREIHHRVKNNLQIISSLLSIQERQLESEELSDVLRESRERIRSIALVHEHLYRSTNLRTIRIRNYLNNILSKLSQGQTHGKDVRISSSIEDLEFNLETSLPIGLMVNELVSNSLKHSGADNITVELRSLNGTLELTVKDDGIGLESPEVLEKSGSMGWYLIRALTDQLDGELKIETEDGLSVSLRFRELGYRERY
  protein production: failed
